Reference: the supplement of paper PMC9112550, “Optimization of the antimicrobial peptide Bac7 by deep mutational scanning” (BMC Biology, 2022)

The sequences below were run on Escherichia coli TOP10 (assay: shrunken log2 fold change of peptide-encoding DNA abundance (4.5 h post-induction vs induction); higher = less antimicrobial activity (less host growth inhibition)). Conditions: time post-induction: 4.5 h; library: site-saturation at positions 5, 18, 19, 20.
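Also: peptides expressed intracellularly from a pBAD plasmid library in pooled LB shake-flask culture, induced with 0.3% L-arabinose, DNA abundance read by NGS, three biological replicates, DESeq2 with apeglm shrinkage.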

RRIRPRPPRLPRPRPRPIAYPRP and RRIRTRPPRLPRPRPRPDKDPRP are within 0.2 log units of each other in “shrunken log2 fold change” value: -0.0833 for the first, -0.0511 for the second.

Compared with RRIRPRPPRLPRPRPRPRFGPRP, RRIRQRPPRLPRPRPRPIYTPRP is lower in “shrunken log2 fold change” value: 0.348 for the first, 0.036 for the second.

First: RRIRLRPPRLPRPRPRPFRWPRP
Second: RRIRKRPPRLPRPRPRPMPCPRP
The “shrunken log2 fold change” value of the first is higher: 0.202 for the first, -0.0242 for the second.

RRIRSRPPRLPRPRPRPAHAPRP and RRIRFRPPRLPRPRPRPEMSPRP are within 0.2 log units of each other in “shrunken log2 fold change” value: 0.121 for the first, 0.000731 for the second.

First: RRIRERPPRLPRPRPRPFTPPRP
Second: RRIRSRPPRLPRPRPRPFWFPRP
The “shrunken log2 fold change” value of the first is higher: 0.116 for the first, -0.113 for the second.

Going from RRIRARPPRLPRPRPRPWGKPRP to RRIRKRPPRLPRPRPRPNWTPRP, the “shrunken log2 fold change” value falls from 0.0748 to -0.129.

RRIRQRPPRLPRPRPRPQTRPRP and RRIRQRPPRLPRPRPRPKTPPRP are within 0.2 log units of each other in “shrunken log2 fold change” value: -0.0472 for the first, -0.0134 for the second.

First: RRIRERPPRLPRPRPRPYFRPRP
Second: RRIRKRPPRLPRPRPRPWMGPRP
The “shrunken log2 fold change” value of the first is lower: -0.622 for the first, -0.0352 for the second.

First: RRIRARPPRLPRPRPRPWDPPRP
Second: RRIRTRPPRLPRPRPRPACKPRP
The “shrunken log2 fold change” value of the first is higher: 0.496 for the first, 0.172 for the second.

Compared with RRIRWRPPRLPRPRPRPNHIPRP, RRIRYRPPRLPRPRPRPPRAPRP is higher in “shrunken log2 fold change” value: -0.569 for the first, 0.403 for the second.

RRIRWRPPRLPRPRPRPMSAPRP and RRIRQRPPRLPRPRPRPTCGPRP are within 0.2 log units of each other in “shrunken log2 fold change” value: 0.338 for the first, 0.285 for the second.

Compared with RRIRFRPPRLPRPRPRPKQWPRP, RRIRNRPPRLPRPRPRPHRNPRP is lower in “shrunken log2 fold change” value: 0.133 for the first, -0.176 for the second.

First: RRIRVRPPRLPRPRPRPTMPPRP
Second: RRIRDRPPRLPRPRPRPLAQPRP
The “shrunken log2 fold change” value of the first is lower: 0.24 for the first, 0.83 for the second.

RRIRYRPPRLPRPRPRPFLPPRP and RRIRFRPPRLPRPRPRPKINPRP are within 0.2 log units of each other in “shrunken log2 fold change” value: -0.557 for the first, -0.385 for the second.

RRIRDRPPRLPRPRPRPFLIPRP and RRIRERPPRLPRPRPRPKRMPRP are within 0.2 log units of each other in “shrunken log2 fold change” value: 0.0926 for the first, -0.0497 for the second.

Compared with RRIRDRPPRLPRPRPRPLCFPRP, RRIRRRPPRLPRPRPRPANVPRP is lower in “shrunken log2 fold change” value: 0.0676 for the first, -0.15 for the second.

Compared with RRIRWRPPRLPRPRPRPHVVPRP, RRIRGRPPRLPRPRPRPMWDPRP is higher in “shrunken log2 fold change” value: 0.0851 for the first, 0.639 for the second.

First: RRIRSRPPRLPRPRPRPYDYPRP
Second: RRIRDRPPRLPRPRPRPADLPRP
The “shrunken log2 fold change” value of the first is lower: -0.305 for the first, -0.0491 for the second.

RRIRIRPPRLPRPRPRPVVMPRP and RRIRIRPPRLPRPRPRPCWKPRP are within 0.2 log units of each other in “shrunken log2 fold change” value: -0.0043 for the first, 0.00408 for the second.

Compared with RRIRGRPPRLPRPRPRPFSSPRP, RRIRMRPPRLPRPRPRPWYTPRP is lower in “shrunken log2 fold change” value: 0.193 for the first, -0.012 for the second.

RRIRLRPPRLPRPRPRPNVAPRP and RRIRWRPPRLPRPRPRPIRDPRP are within 0.2 log units of each other in “shrunken log2 fold change” value: 0.0405 for the first, 0.0528 for the second.

RRIRHRPPRLPRPRPRPHSTPRP and RRIRTRPPRLPRPRPRPKGTPRP are within 0.2 log units of each other in “shrunken log2 fold change” value: -0.349 for the first, -0.188 for the second.

RRIRKRPPRLPRPRPRPSPKPRP and RRIRWRPPRLPRPRPRPDRGPRP are within 0.2 log units of each other in “shrunken log2 fold change” value: 0.057 for the first, -0.0836 for the second.

Compared with RRIRTRPPRLPRPRPRPDEDPRP, RRIRGRPPRLPRPRPRPRGIPRP is higher in “shrunken log2 fold change” value: 0.0169 for the first, 1.23 for the second.

RRIRTRPPRLPRPRPRPEKPPRP and RRIRNRPPRLPRPRPRPDWQPRP are within 0.2 log units of each other in “shrunken log2 fold change” value: 0.0634 for the first, 0.184 for the second.

First: RRIRNRPPRLPRPRPRPNMFPRP
Second: RRIRFRPPRLPRPRPRPECEPRP
The “shrunken log2 fold change” value of the first is lower: -0.00614 for the first, 0.639 for the second.

First: RRIRFRPPRLPRPRPRPMCMPRP
Second: RRIRSRPPRLPRPRPRPKKIPRP
The “shrunken log2 fold change” value of the first is lower: -0.153 for the first, 0.139 for the second.

First: RRIRRRPPRLPRPRPRPKSPPRP
Second: RRIRTRPPRLPRPRPRPGGKPRP
The “shrunken log2 fold change” value of the first is higher: 0.189 for the first, -0.215 for the second.

Compared with RRIRNRPPRLPRPRPRPGFKPRP, RRIRNRPPRLPRPRPRPYMRPRP is lower in “shrunken log2 fold change” value: -0.171 for the first, -0.597 for the second.

Going from RRIRKRPPRLPRPRPRPPWQPRP to RRIRTRPPRLPRPRPRPDPCPRP, the “shrunken log2 fold change” value falls from 0.236 to 0.0297.

Compared with RRIRIRPPRLPRPRPRPFHWPRP, RRIRIRPPRLPRPRPRPSGVPRP is lower in “shrunken log2 fold change” value: 0.0373 for the first, -0.666 for the second.

First: RRIRWRPPRLPRPRPRPYFLPRP
Second: RRIRQRPPRLPRPRPRPTTLPRP
The “shrunken log2 fold change” value of the first is lower: -0.757 for the first, -0.196 for the second.

Going from RRIRFRPPRLPRPRPRPHGHPRP to RRIRRRPPRLPRPRPRPVFAPRP, the “shrunken log2 fold change” value rises from -0.18 to 0.455.

Going from RRIRWRPPRLPRPRPRPCRNPRP to RRIRKRPPRLPRPRPRPNMHPRP, the “shrunken log2 fold change” value rises from -0.0199 to 0.19.

RRIRGRPPRLPRPRPRPPKRPRP and RRIRMRPPRLPRPRPRPGCQPRP are within 0.2 log units of each other in “shrunken log2 fold change” value: 0.701 for the first, 0.719 for the second.

First: RRIRSRPPRLPRPRPRPTRYPRP
Second: RRIRVRPPRLPRPRPRPQNIPRP
The “shrunken log2 fold change” value of the first is higher: -0.198 for the first, -0.504 for the second.

First: RRIRHRPPRLPRPRPRPGNRPRP
Second: RRIRTRPPRLPRPRPRPFVMPRP
The “shrunken log2 fold change” value of the first is higher: 0.013 for the first, -0.277 for the second.

Compared with RRIRIRPPRLPRPRPRPYNKPRP, RRIRTRPPRLPRPRPRPYLIPRP is higher in “shrunken log2 fold change” value: -0.783 for the first, -0.183 for the second.

Compared with RRIRLRPPRLPRPRPRPFITPRP, RRIRGRPPRLPRPRPRPMIKPRP is higher in “shrunken log2 fold change” value: -0.35 for the first, 2.22 for the second.

Going from RRIRMRPPRLPRPRPRPMYYPRP to RRIRQRPPRLPRPRPRPIVGPRP, the “shrunken log2 fold change” value rises from -0.339 to 0.0288.

RRIRNRPPRLPRPRPRPSQMPRP and RRIRNRPPRLPRPRPRPDHEPRP are within 0.2 log units of each other in “shrunken log2 fold change” value: -0.232 for the first, -0.039 for the second.

First: RRIRQRPPRLPRPRPRPERFPRP
Second: RRIRFRPPRLPRPRPRPYRRPRP
The “shrunken log2 fold change” value of the first is higher: -0.0441 for the first, -0.506 for the second.

Going from RRIRERPPRLPRPRPRPHCLPRP to RRIRRRPPRLPRPRPRPKSDPRP, the “shrunken log2 fold change” value rises from -0.138 to 0.441.

Compared with RRIRERPPRLPRPRPRPFGWPRP, RRIRSRPPRLPRPRPRPKTKPRP is lower in “shrunken log2 fold change” value: 0.213 for the first, 0.000308 for the second.

RRIRDRPPRLPRPRPRPTYAPRP and RRIRNRPPRLPRPRPRPAHAPRP are within 0.2 log units of each other in “shrunken log2 fold change” value: 0.0176 for the first, 0.116 for the second.

For RRIRIRPPRLPRPRPRPWPEPRP, the “shrunken log2 fold change” value was -0.162.
